{"source": "the DeepSol protein solubility set", "data": [{"assay": "soluble on expression in E. coli; label from the status in PepcDB or PDB records", "values": [{"sequence": "MAHHHHHHMEVGQRCRLLVADCTYTHATNSSDDIHGNGFTVTGVVVGVRPHAEEPWRRLYYVHCTRIEFGTELARQRRKAAAPSWSGAPLSTIGSGTIHSCNELRAAGGSFVSNGGYHYRYDGWYDAFALTPLSADVALANNTAAMASAGSSPPEPPATVSEPRDDEGAASASAVSHLPGQHRDAPEEWVAAMERDTAVCEVVYLCYAFQPWFSAPYSALQYLALPEDDVCHSVYVCHRCLSPFFTREQYYVHLAGEYCRLRTPPGRLIYHDEDAGYKAFLVDGAKNLHYGRCLSLLSKQLIESKVLSNDVDLYEYVVVTIPRASLPYMPAALPSCTSAEQCGVANLVALSREGFRQAASDFDAEDWDGDAVMGYFSRLKHHPDHTLSCIVTLPMFQRTRVATFLLDVAYWMTRQRQRLCGCGFCGRSGGAISRPFSPHGQSLLLSYWRRALLRSLAEVAPLHRRASRTAQPELRFTLAELRALMDIPIHTNDMETLLLHSEFAFYQPAAANAAAARYSDDDDSASPPTSPTSARRRQRHERGSTSTSLKDSQASSGSKLSSSSAGGSAGNGGSSTSGARYTGTLVLEAALLEAAAELHTKTPRSCVMFDKRWLVKDGRGAYAYDTPYYHH", "soluble on expression in E. coli": "not soluble"}, {"sequence": "MAHHHHHHMFQNIQTIILDVNDGEMRAGYSGECSPRYNSNLILGLPVGHGATLKHTIFPLLPEIKRDNVELIYGMKYIYDDNNSSKYEINFDVMEKLLEDISGSKALDDNFQDHPILLTEPNKTDRKYREKFTEMMFETYNVYQLFLSRRSVLSCYGCARTSGLVLDVERNCTNLCGIQEGYIFQKHIEEVPIGGDLIDRIYLAYLENVKNIKIYPYFTIEKGQSAEKETDEIRILKCPLVTKPYYLWGSLHVASHLKENLGNECHPLGDKMKKNENKNESNTSYKLPDGSIIDQTTCESLKLIFPYIFFKKKYNQNSVTKLAGITTLQNMDFNSFYDSLKTLKLPVLYKHNYRINASSSVLERVPDNPADKNSNICNSDQIDTYFEIFDGLQDFIKKGILSFISANMTLDEVLNFLIVTGESTMFHNFIGILKSYLPFIDTIKEKSTQLIYSKGADRKCNCFIGASILSSLGTFPQFCMTKSEYEEYGVKNIVDKKCV", "soluble on expression in E. coli": "not soluble"}, {"sequence": "MAHHHHHHMGGFGSKNMEYYNYASMKLLERDKYTNEKEEEEDDQYCKETDIREAVKKAREIRNCNYKESMDLYIKALKMLKKLKENNSRIYRNVLEFEIRPQEIASSAPLNTSLEKNIHMKKEGETNYTCAPPNDNQAISLNNKIASLYNEIADLCCIHDFIEKSLFYYDKACSYNPSKIDYIYKKGVLFQQMNDTERAINTFKIILSAEPNHIPTLFSLGNLYRYIDNHIALSYFEAILKIEPNNTEVLSLIASCYDNLGKLNEAISYQNKAVQIDPDNFNHKKFAQRLIEMKSQN", "soluble on expression in E. coli": "soluble"}, {"sequence": "MAHHHHHHMGKPGKKAGKGLLAPTNPNRRTDPNKTSLRDQRTIKRLKMYKSKIKRDEKGNIIKGSVLKASDRIEQQMARIAPDRRWFGNTRTIGQEALQKFREEMGTKYKDPYSVIIKQSKLPLSLLEEPKNTDGSIRKEMEWDKTFGDKANRKRVRLNAVDMSTLATEANVKGDYYDCNKKEKDRDLMKGVHKDRDDKTRNGILMTKGQSNRIWCELYKVIDSSDVVLYVVDARDPMGTRSAFLEDFMRREKKYKHFVLVLNKCDLVPLWATARWLQILSKDYPTIAFHASVNHPFGKGNVISLLRQFARLHNVTHRGSKRTKTPISVGVIGYPNVGKSSLINTLRRKSVCKVAPIPGETKVWQYVALTRSIFLIDCPGVVYDRESNNDIQAVLKGVVRVERLGNADKTDVVDTVLKIVKQRDIVATYGVREWRDVVDFLEKLAKLRGKLVAGGEPDVEAAARMLLYDWQRGRLPWFNAPPFESNKHHRDAMEQPQEKHMKLIEHYSTFNVVDDTINRGDEKQDEGGDGDEETANNAADEDQLDSGSEAEKDEEAVKPLKPSKTDRLSATKADTQLATVATYMREQEEKQRKAQRQQKRKAARKGQEDVEAFSADADRESDDALWAQFLAAAKV", "soluble on expression in E. coli": "soluble"}, {"sequence": "MAHHHHHHMGQGLTGGAMAGAALSITALPLRLTLADHLGICGAATACGLALDFASDCCSKEGRVIIHRDVLLKAQDPLRHLSTFYTTCESNRMARLFRQKHEWVVLESHGQQYYVVQKNPATGDVLMDVRNSLRAANDVGLQVAGKPMHTGEIRQHRMETEFDLPSDLQVAYVIAWLRKEDPRWAFSTENSRQFTARVRYALMDF", "soluble on expression in E. coli": "not soluble"}, {"sequence": "MAHHHHHHMGTLEAQTQGPGSMRRVVVTGMGIVSSIGSNTEEVTASLREAKSGISRAEEYAELGFRCQVHGAPDIDIESLVDRRAMRFHGRGTAWNHIAMDQAIADAGLTEEEVSNERTGIIMGSGGPSTRTIVDSADITREKGPKRVGPFAVPKAMSSTASATLATFFKIKGINYSISSACATSNHCIGNAYEMIQYGKQDRMFAGGCEDLDWTLSVLFDAMGAMSSKYNDTPSTASRAYDKNRDGFVIAGGAGVLVLEDLETALARGAKIYGEIVGYGATSDGYDMVAPSGEGAIRCMKMALSTVTSKIDYINPHATSTPAGDAPEIEAIRQIFGAGDVCPPIAATKSLTGHSLGATGVQEAIYSLLMMQNNFICESAHIEELDPAFADMPIVRKRIDNVQLNTVLSNSFGFGGTNATLVFQRYQG", "soluble on expression in E. coli": "soluble"}, {"sequence": "MAHHHHHHMHHGATLHESLPCPLVSPIVSIDQCPFQPHERSETRPPHGNASLTFYTARSRCRVNFTPGPNVTYSAENKYSWNPYYRLETENKSQRLKAAQEECNSASVSGPCPIALTPRQGQCMARCSNTSSSTAQSPMHTFGCETPAIVSRCELSPQFSSVKSESGRALLTASHSIEENSITESTCVPQFDNMMHGLPMYASIHPVGEVWPLNEMNNEENVVFDAIKPTRNEQLQQQLYPTPLLVSQNQPTVSPYPYVMESRTIQPTYVSYNKARVPLLRFSKMLPPPVRCEAMSILENENPQLPLLMMYNPVLRWYERIKALLNEDYSAWPGGSCAVNISNNKSVRLELEEPCPTLPNKAEQTRENMSQWLKECNEWWDRQFFEKSRNGDKRRNGTGRGKWRQYSIQYPYNNHNNNNKAHKVNRGMQFDGEVAFLRRGGLQ", "soluble on expression in E. coli": "not soluble"}, {"sequence": "MAHHHHHHMHIGLAAAVPSPTTAPQWLQDIENQLLIRNAIELKPSQSIFDSYTTLHVSVLHLQTVEDERQRLRMERSRLTERVRELEQAAANSSLQTSYERELEAKKDALQDQLRVYMQRESDYYKALSEVKAVQEERDMLRLRSNKLDAELEQRTAELQLLHKEYTALRDEYDRVRLTVSEADRYLREVKTAKEKTVQLQHRIVTLEDEVNMLRRQLQEALKGETAAAVDKAKRANPNKDGEDAEVAPSPMHTTHSPHTDPCTTLSPNPLGAEPSHASMVISEAHTSSTLHGLCVLDDGKRFLTSGADKHIRLWNRQSPQAEKYFSSSSIALALDTSSHYLLAGCADHVVRFWDVNSLRVLEMTGHTEKVVAACLSSSAQHAFTASSDSTIKLWDVRRRESLRTLLCQSTCNDVTVAGDTVFSAHYNGKITVWDRRTATRSGEVVAHQRVATCVRVSANGQLCVSMGKDNVISVRDARVFTKTLFSVAPVQLVVMMNWARLSIAPSGQLCAVGSGRTSDLLLIRLHGGGQGDAEATDSASSPALVKVLKACVSNATSYGDQGSGSSKGPIFSTAWGASEGGPLVSISNDRCVQVWE", "soluble on expression in E. coli": "not soluble"}, {"sequence": "MAHHHHHHMHVKHRATGRVVATLPFEPMPTLEDVSDAFIKAESTTATTHTGDLTVPTAYDNAEEDVDGAEEGETMYAVVYDLVTPTAPGDNGDSELAAAVTAAGLLENLPADADGTCNIGETMRKLVELGAAELLTAEPLSVSQARREYNPPEAPGLLRRIVYPASQYSPYRLDRDPLHTDKLSFYRSSTVTASVPSGPPPTSCTGLHALPVWDYGEGGLYTSYFDSYDLSCPMRGPFVRPSAAGKAALVMPLSDEEHHRIFGA", "soluble on expression in E. coli": "soluble"}, {"sequence": "MAHHHHHHMIFIHSLRLRHNLVSKNVERCTVFAFLDADFITAIRHKVRELKRAARRQPHRSALEVYSQERPTRHHVLPPPHYFSEKVGVDCCVLYIPEVEDFPLLDAFFFVNSNPVTLVGLRMATAGEHHTTASTVRQFTECLAAYFNGWEELSRDMSWETIYVQHADSTPMNDWQRCDVVNSDNVSKKENREIVAFWEEEVHQYLAVISSADARRGEAL", "soluble on expression in E. coli": "not soluble"}, {"sequence": "MAHHHHHHMILPRYAYAHADMDQKQMQKLLLMGPGGAGKTCMRSIIFDNYLPRDALRLGITISLDQSQVHILRNLFLNLWDCGGQHRYVTEYLNRQKEYIFRYVGVMLFVFDINSMCRDSHGGIGGLGGVGGESSSATTDWKLPEMLEYFREAMRFIRQYSPKAKVFVLLHKIDLIHKDIREEIFQARKQEILNCIDSDNGMNIEFFGTSIWSDSLYLAYSSVVRSLVPHRDVLVEMMRGIAMACDAAEVALYERSTFLCLTHINRKAAADGSKALFLQGDGELRTTEVSETVKHFKLSCMNNTTSLGGLSITTETFTALLCPFTECTHVLVVSVDPKVNVELHRLNVNAARRRFEQFLDSDEPTACAMREVL", "soluble on expression in E. coli": "not soluble"}, {"sequence": "MAHHHHHHMKAGGGLVALLAQTVVAGDVNACCGVLRRVFSETLQEDRRLTALASNAARSVRRRSHHSAGTAPSFATAPAAATKTLSSSASSSSLSSSSALATSSGPDDVVNFARYAQHQRAQAHSFANAAAQAVLRTSFVPPDGVRPLAVAAAGTKGHPTDAEVPQSHRASSAFGAPTDTPIAQRVWKLARSTLSTDSALVKTSSLHVLCHTAQRTGYWEEALHFCEYLPQSPAPLFLSSLLRPDNVNPILQHCATRGWALDVTNAIRVLAEEHGSWSAALVVAQDAEHRLPCGEAYSLGVLVPYLAVSGATAQARQLFESGLAHGALIDPVLVQQLVMQTATLRQWETCLHMLQCLYRTQETAQLLPADADFFCRLMEVSPGWVTSLQLLHMARASDVKPNERTVAILLTQCDQAGAWREAAAVYDMAVKEDFIDSLAVGSTYHTLVRSFSAIQQWQKALEALSWMSKADDASLTAGMMELVTLCEQSGQWEAALSVGSTLMDSGVHLLSTQTSMALLFLCAKGAQWEFAMRLFDAQLHDVRVDPHPLSLCAVMQACVAARQWEAALRVYDAAKASQPRMVVPPLAHRIAVKACVSAGKWNLAIAVLDATRQDGLPLDNYSQRLGLWAAAIQGQWELSLAFFQGIPRRSRTPQDRMMVRHVTRAISPAVDAIALRFLQSH", "soluble on expression in E. coli": "not soluble"}, {"sequence": "MAHHHHHHMKAGKSGHRIYVGNIPGSMSKQEIIKAFEEFGKITEIDIKYNRNTNGTNYAFIEYESYKSAEKTIENKNGQKLKGYMLKVEYSIDKKNKEGGDLIALGGREAVSKGLLTNVRLPKNRSHYRVVVKNFPRKKIKLDGIKTFLMKAGKVIYTQLEDEITIAEYDCREGMLRAVNTLDRTMFNSTRKVYVRVLKDLPYDDSDADDSAQGCR", "soluble on expression in E. coli": "not soluble"}, {"sequence": "MAHHHHHHMKCFYITEKGKKQNFRNIKLITFDLDHTIWNIDGLLNYADKECYEYMKKNYRRLYDYLQEEYQLSITNLVKQLLENKIEDNNDGVQTLTNMRIDALKFLAKKTNYDEGKFVSEIQELWKEKKNDVHLFISPGTLEYLRELKRRGYTLGAITNGDSDVNGIKFLNEIFTFVIRSMDYNHSKPSVEIFNIAENILKKKNFHFEIHQWMHVGDDVYTDIMGAKNKNINCAWITMFRDGSEVPPNDWYPYLKLKLEENGDSHLSQYDPFADGLFSRFRRRDVVLPYEYIDIE", "soluble on expression in E. coli": "not soluble"}, {"sequence": "MAHHHHHHMKEEIPQLQNLERDLLKQRNKYLSKVGNLLNKDVVISNDEDNNKVVTTWGVCKRLEVITDESSEENKSGKGGSKDGGSNKREVPSSSSISGGVVHPNSSIEGKKYYYHFDLLRKIVGANFKKGIQVAGHRGYYFTGAGFFLHNAILQYAINFLVSKNYTPVYPPFFMKKNIMEECAELDDFEETLYKIASSGGNSTATTGTASGALVSKNLNQNDELSRDDLFLIATSEQPLCALHKDETIESKYLPLKYAGVSSCFRKEAGAHGKDIRGILRVHQFDKIEQFCLSLPQTSSKVHKQMMKTCEEFYQSLNIPYRIVSIVSGALNNAAAIKYDLEGYFPSSNQYRELVSCSNCTDYQSNNLNVKYVDSSVRITDVKEDRKKKENTGDHQDDDDDDEIGSDHEEFLKNFHTESRNNVHLLNGTMVAAQRFLCCLLENYQNGEGIVVPEKLRPYMNNVDFIPFIE", "soluble on expression in E. coli": "not soluble"}]}]}
